The data set is described as follows: soluble on expression in E. coli; label from the status in PepcDB or PDB records.
“GPGSMLWVDRYRPKTLKDVELYPELKEVLTRLSKAQDLPHLLFYGPSGSGKKTRAMAMLHEIYGPSVFSVRLEHKSVQVSDSKVVDIATLSSPHHIDINPSDAGNYDRAIVMQMIREIAQTVPLHSTSGNRKNVPYKVVVLNEVDKMSRTAQHALRRTMEKYMNTCRLFLLCNSTSRLIPPLRSRCLGIRVASHSKDNLKLAVQRVCEGEGRPLPSVAFLNSLALRSDGNLRRGLLMLEASALAKVDWSGNGAAIPQADWKLFLDEISHDIVAEQTPKRLHEVRLKFYDLLAQCISGETILKTLVDSLLAAVAPALQRPLIELAAKYDHNMKLGTKPILHLEAFVAAVMKLIKQQ”: the “soluble on expression in E. coli” value was “not soluble”. With “MLLIDKGHDIYKRNCPILQKKIEKCPPPAGKKDYAGCVPACSITNGFGGAGAYSDGKFNITSEFGGWMTDYLPASTVLELIRYVDEINLKHGATTSITDPMTDKVKEIERRAYAAGLKLLRAYVRHLGTEQNLAILQSIFEYLRERITMRFKTEVDDIVTERTEDGHEVKGVVLKNGETLTAEKVVIAPGRDGSVWLSKLLRKRRLRMINNQVDIGVRVETSNIVMQEINEHLYEGKFIFNTSVGTQVRTFCSNPSGHVVVENHSGIMLANGHAYKDPKLGSSNTNFALLVSHKFADPFDKPNEYAHEISRLANALSNGGIIVQKYGDILKGRRSTEKRIKEGFIEPTLKEAVPGDLGLVLPYNTMKSLIEMTEALNHVTPGLASEHTLFYGVEAKFYSARPKLNDRFETEIAGLYVGGDGAGITRGLAQASACGVWIARDIVEKLTRLEHHHHHH” the entry was “not soluble”. Regarding “DNARTNPLKDLEFFLHSFRGLLEKAPVVVGITKMDIRSQPGIDVYHKYLAKHNLNVPVFEIDARKEDDVKQLVSAMLFSIDPGLEV”, the “soluble on expression in E. coli” value is on record as “not soluble”.

Regarding “MYLLLSLALVCTAAASSGYGIPANDDPSYSPPANDNPSYSAPANSDNRLYYDYSSRSSSSSSDSSEERECRKLREFDLPSELKSIGVKAKFSEMERRGKTYTTISCPSNTKTYAIIADKSGSNVSQGDITIQDAVLLATGVNIDVVGRCRGRRTTVVANNGDEVKIKTVVCVELSTSPDKY”, the “soluble on expression in E. coli” value is “not soluble”. Turning to “IRRVLVPVDTSEERARNQAKYLTSLPNIPDSVEATVLFVFPHQDYKGAPSHDFEEVDAAVTAAEHLEAKGISVERVAVGGEVGRKILDAATDRDADSIVIGGRKRSGIANVLLGGTTQDIMLAAERPVTLTG”, the “soluble on expression in E. coli” value is recorded as “not soluble”. As for “MSLQLDLLPPQDRGQVHSVFVVVPRFNLTTLITMIETMRIGNYLSSERLFSWEVTSFDGLNLGASNGVRVHLDVEPDQTAPADQVFVLASWGGEHYQNKALASWLRKRARQGERICAVELGCYLVARAGLMDGKEATTHWSWINGFQEKFDQISVVEQLFTIDGRILTCAGGMAGVDLMLRLIEQSHGAGFSGEIADQMLHNEGHHHHHH”, the “soluble on expression in E. coli” value was “soluble”. For the sequence “MSLPKITKIEVQKKNKERFNLFLDEQFEMGIDIDTLVKFNLKKGQQLEAADMAEIQKYDHYRIGLNKAIQYLSYKKRTEKEVIQYLQKEEISEQAISEVIEYCYREKLIDHQDYAESLKNTMIRTTDKGPKIYQQKLYQLGIEPNIIEIFTELYREQQELDDIIQIAEKISKTKKGPQNKVKEKVMQSLIQKGFEMETIHAVLNEMDFTQDEAVLDDLLQRDLEKIYNKNRKKYTQQKLISKTIEGLMRKGYKYDKIKAKLEESGIADGTEEIEEGHHHHHH”, the “soluble on expression in E. coli” value was “soluble”. The result for “MSLKALHFGAGNIGRGFIGKLLADAGIQLTFADVNQVVLDALNARHSYQVHVVGETEQVDTVSGVNAVSSIGDDVVDLIAQVDLVTTAVGPVVLERIAPAIAKGQVKRKEQGNESPLNIIACENMVRGTTQLKGHVMNALPEDAKAWVEEHVGFVDSAVDRIVPPSASATNDPLEVTVETFSEWIVDKTQFKGALPNIPGMELTDNLMAFVERKLFTLNTGHAITAYLGKLAGHQTIRDAILDEKIRAVVKGAMEESGAVLIKRYGFDADKHAAYIQKILGRFENPYLKDDVERVGRQPLRKLSAGDRLIKPLLGTLEYGLPHKNLIEGIAAAMHFRSEDDPQAQELAALIADKGPQAALAQISGLDANSEVVSEAVTAYKAMQEGGSHHHHHH” reads “soluble”; that for “MAHHHHHHMSDAAPGPAPAPVTAAVDAPPLPAPTKVKPPRKKPPRAEEANPRLLAPANGVAAQQQKQRDKEFATHKAHILTNLQTNACDLSPKGSLDAKCLPVMGVLNTHKDYVTTSSCSGRIALFHSIKHSEACGADDGTATPKPRMKRGENAALGWVFVKHGMLRPMEMAQVVGFLCGAPTTPEDVALDSAQMEKHAAHMASVSCSAHCHSAAPGSLLAEMYDGEVEGALVGARVSGDEVAALPVPTRGTVSLKMEPFVMHVQCRTMEAAKLLLSAVVSDSGFRNSGVVPPGKKIMCGIRSAAGLGLEVPVVVDGVNHVASQRAYVWALLGLANEKMEANEKKIKLLERSVAARVLPA”, “soluble”; that for “MSLTGLFEPIAPQAPLAERLRPKSLDEVVGQRHLLGEGKPLRLAFTSGKLPSMILWGPPGVGKTTLARLIANTADAEFIPLSAVLAGIKDIREAVERAEHTLQQSGRRTILFVDEVHRFNKGQQDAFLPFVESGLITFIGATTENPSFEVNSALLSRAQVFVLNALSEDELKQLLERGKQEMQLDIPLTPEVVEQVLGYADGDARRLLNFVEGLFNAALTAGVTKIDAEFLQSTMASKLRRFDKGGEAFYDQISALHKSVRGSNPDAALYWFLRMLDGGADPLYLGRRIVRMAVEDIGIADPRAQTMALEACQIYERLGSPEGELALSNAVIYLAVAAKSNAAYMAYNQAKAFVASDKSRPVPLHLRNAPTKLMKDLNYGKEYRYAHNEPGAYAAGEDYFPDGLEAIQFYVPTQRGLEGKISEKMAHLRALDEEARSKEGHHHHHH”, “soluble”.

On to “MGSDKIHHHHHHMTNIPFIYQYEEKENERAAAGYGTFGYLITRIEETLYDQYGVFYELYASDDPNTEYWELLVEDVRSGSLEPEHVAYIFEKLEKKTFAYDEDEKEPDYTVHKSIRNSVYAYPEKGVAFARIPYFQDGSIMSFDCLFAVNDEKMRAFLEGVRPRLWEKSKRKVTVFTDGDGGTSREQEAIVREVQRSQVIMNPLLKKEIYRSIDQFFHSDKSFYQTYDIPYKRGILLYGPPGNGKTTLVKSIAGSIDAPVAYWQITEFTSSETIEEVFQAARRLAPAVLVIEDIDSMPEDVRSFFLNTLDGATSKEGLFLIGTTNYPEEIDPGLMNRAGRFDRAYEIGLPDEELRLEYMKMRGFGIFLSEGEIKNAAKLTEGFSFAQLGELYVSSALQWHQEGNHHIETMVKDMTGEQRKSQRGSWMERNKVGFH”, for which the “soluble on expression in E. coli” value was “not soluble”. The result for “MSLQHNELKTPYFMINEDKLIANLEKAKQLKEISGVKLVLALKCFSTWGVFDIIKPYLDGTTSSGPFEVKLGYETFGGETHAYSVGYSEDDVREVADICDKMIFNSQSQLAAYRHIVEGKASIGLRLNPGVSYAGQDLANPARKFSRLGVQADHIKPEVFEGIDGVMFHMNCENKDVDAFIGLLDAISEQFGEYLNKLDWVSMGGGVFFTWPGYDIEKLGLALKAFSEKHGVQMYLEPGEAIITKTTDLVVTVVDIVENVKKTAIVDSATEAHRLDTLIYNEPASILEASDNGEHEYVIGSCSCLAGDQFCVANFDQPLEIGQRLHILDSAGYTMVKLNWFNGLRMPSVYCERSSGEIQKLNEFDYSDFKRSLSEGHHHHHH” reads “not soluble”; that for “GPGSMSTSAYRVASLLRQENNKLCSDKEKNTLARLTRDVEAFLDHAADVPPVVMETPYDDGETDLMEVHLSVVAGVLEPCEPASDVTAVDGVFMPTAKNHVAMDRKRVREAQAMLNLLGALSTDCNMPTASVAAATRCRLSLGSGEKADFESDDESIAVFDADELENDTSSSDGESNVHGRPPPRILELN”, “soluble”. The result for “MKKFCLSYSSGKDCLLAMDRLVQAGNQPVALVTTLSDEINRSWFHGIPISVLEAAAEALDLPLVISHNNETNYTEKVVEALQETKKLGAETVCFGDIDIEQNGAWDRQVALSAGLEPQLPLWQENREALVKEFLAKGYTAIIKTVSKEAGIPIKFLGEPLNETFITYLKEHQLDICGENGEYHTLVIDGPLFKKRLNYYTSGIYESPYAYSLIIDA” reads “not soluble”; that for “MSSRVPILKVDDYWVVAIEETLHDQSVIQFKEELLHNITGVAGKGLVIDISALEVVDSFVTRVLIEISRLAELLGLPFVLTGIKPAVAITLTEMGLDLRGMATALNLQKGLDKLKNLARMEQR”, “soluble”. The result for “MSNYAKEERLTGGNVSSVYRSENTVRRELKPGSEKTHKLLQHLENKGFHYAPKFLGVDEKDREILSFIEGEAGNYPLKEYMRSNDVLKEIAKMLRLYHDAVSDFPLLNDWKPMDHTPNNIEVLCHNDFAIYNIIFNNEKPVGIIDFDVAAPGPRLWDIAYTLYTCVPLSRVYYTESGEAVHYDSPQHADRIKERVKLFVQSYGKNMDEDYLGMVLLRLEGLCTYMKRKAQEGDLNFQRMIDEGHLEHYEKDIKFIRDHRAEWS” reads “not soluble”; that for “HVGYPLLLKWLPLKPKANDEGEHFAERHYKASASDNKLPSVTIIIPAYNEEQWIAEKIRNLASLDYPRDKLKVVIACDGCTDKTAEIAQDTIQEAICSDTLFIVNDHSINRGKVALINEEMKHVTSDITALSDTSALVSCDSLLLASQHYQNEKVGVVNATYQIMRTSNQGEAAYWQYQSRVKHQESLLGSTIGSHGAFYTFRTKLFEPLEAGTINDDFILPMRIVLRGFTSVYEPKMLALELEQSSDDADFKRRLRISAGNMQQLMQLKKLLLPRYRGTAFAFLSGKVLR”, “not soluble”. For “MGDSILSQAEIDALLNGDSDTKDEPTPGIASDSDIRPYDPNTQRRVVRERLQALEIINERFARQFRMGLFNLLRRSPDITVGAIRIQPYHEFARNLPVPTNLNLIHLKPLRGTGLVVFSPSLVFIAVDNLFGGDGRFPTKVEGREFTHTEQRVINRMLKLALEGYSDAWKAINPLEVEYVRSEMQVKFTNITTSPNDIVVNTPFHVEIGNLTGEFNICLPFSMIEPLRELLVNPPLENSRHEDQNWRDNLVRQVQHSELELVANFADIPLRLSQILKLKPGDVLPIEKPDRIIAHVDGVPVLTSQYGTVNGQYALRVEHLINPILNSLNEEQPK”, the “soluble on expression in E. coli” value is “not soluble”. With “MSLAEKIKVLIVDDQVTSRLLLGDALQQLGFKQITAAGDGEQGMKIMAQNPHHLVISDFNMPKMDGLGLLQAVRANPATKKAAFIILTAQGDRALVQKAAALGANNVLAKPFTIEKMKAAIEAVFGALK” the entry was “soluble”; with “MAGDPMNNNSKNNSRNVVTMNQASQSYAAQESSKMCLFEPRVFSDTQDIADELKNRRATLVNLQRIDQVSAKRIIDFLSGTVYAIGGDIQRVGTDIFLCTPDNVEVAGSITDHIENMEQHYELEHHHHHH”, “not soluble”; with “MAHHHHHHMIKLGNFAWQLLTRADGSNLGGVLRGSRKVCSLSVARLSKHPYKPKTKEVIHPHVTPPEFLSPSDCFEAKTDELQQYLPSNYYRTKWVESLRAGEHLGSDYPWNLLPHWKFWKKRKYNVVYGEVPWFVSKVKGVSYYQRLNVWMVQWVEEGVHRIRRFRCAFGVLQAKLAAEQFRRNLEESGRVDNRKSERQLRMDYIQKRDERLLRKKRYSKVSKGQF”, “not soluble”. For the sequence “MAHHHHHHMSNQGDFNTYIYIPVKCNESIKKRCELCFDVLFKLIEMKHKECYNKSKEKNLLCHNDINKGEIHKHIYYQLYKLNEHIKENNIEKDFKEPLHITISGSLNLKRYMINSFINKIKEELKNQNSFYLFFRNEVDLYKSQKNTKYFCSYTVKEDQQELYLNTLKEKINKILNEFDLKDTHLNRIYHLSLAYTNINLDVLLEKENKKCVEEETFFWPNINELILNKDIKENRLDDLYIYVNCIHIRIGYKLYKIPFKSFDDNLNVSDSYDSYMSSTDE”, the “soluble on expression in E. coli” value is “not soluble”.

Values taken from the DeepSol protein solubility set.
